1 molecule from patent publication US20130236470A1 (JUNTENDO EDUCATINAL FOUNDATION, published 2013) can be followed below.

The target of assay [1] is T1, TRAIL death receptor DR4 (UniProt O00220 24-468, limits assumed).
T1 construct: whole, on cells; also called DR4 receptor
T1 sequence (looked up): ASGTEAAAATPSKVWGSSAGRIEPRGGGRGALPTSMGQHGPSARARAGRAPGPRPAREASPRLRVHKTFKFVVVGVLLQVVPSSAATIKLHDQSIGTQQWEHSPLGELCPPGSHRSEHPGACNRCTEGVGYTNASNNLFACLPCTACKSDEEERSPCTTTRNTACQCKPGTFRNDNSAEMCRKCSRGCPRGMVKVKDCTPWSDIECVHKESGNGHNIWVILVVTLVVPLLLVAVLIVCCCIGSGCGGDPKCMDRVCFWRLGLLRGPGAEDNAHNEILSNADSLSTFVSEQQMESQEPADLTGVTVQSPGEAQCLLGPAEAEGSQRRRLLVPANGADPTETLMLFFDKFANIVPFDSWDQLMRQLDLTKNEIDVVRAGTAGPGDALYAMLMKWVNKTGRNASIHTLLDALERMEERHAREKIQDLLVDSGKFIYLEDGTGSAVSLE
In words: flow cytometry on BHK cells transfected with the DR4 receptor gene. The method, then: (§1) Hamster-derived BHK cells transfected with the DR4 receptor or DR5 receptor gene were incubated with the antibody of the present invention for 1 hour and analyzed by flow cytometry in the same way as in Example 6.
(§2) In order to confirm whether the antibody of the present invention targets a TNF-related apoptosis inducing ligand (TRAIL) death receptor DR4 or DR5 known as a death receptor (cell death-inducing antigen), the antibody of the present invention was examined for its ability to stain hamster-derived BHK cells transfected with the DR4 receptor or DR5 receptor gene in the same way as above. As a result, the cells were stained by a known antibody against DR4 receptor or DR5 receptor (red line), but not stained by the antibody of the present invention (FIG. 9).
Background: In flow cytometry, cells or beads pass a laser one at a time.

Assay [2] addresses T2, peptide CRHNYGVGESFT (human).
T2 construct: Region of the HLA-DR52 β chain on the peptide microarray (overlapping 8- to 12-mers)
T2 peptide: CRHNYGVGESFT
In words: peptide microarray of overlapping HLA-DR52 β chain peptides, 5 µg/mL 4713 mAb. Here is the method:
(§3) Overlapping peptides consisting of 8 to 12 amino acids shifted by one amino acid were chemically synthesized from their C termini on an array using the amino acid sequence of an HLA-DR52 β chain having the highest homology as a result of analysis using software Mascot (Shimadzu Techno-Research, Inc.) to prepare a peptide microarray (LC Sciences, LLC, Texas, US). First, the array was blocked by immersion overnight at 4° C. in a SuperBlock (pH 7.0) (Pierce Biotechnology Inc.) solution containing 0.05% Tween-20 to prevent nonspecific antibody binding. […] The array was washed with the washing solution for 20 minutes and then incubated at 25° C. for 1 hour in a 10 ng/mL Cy5-labeled goat anti-mouse IgG antibody solution. Cy5 was assayed at a wavelength of 635 nm using a microarray scanner (PMT 700 V). Since nonspecific binding to a peptide sequence having a C-terminal tryptophan residue was observed, this sequence was omitted and peptide sequences showing specific binding were then analyzed. […] A peptide sequence ([…]: SEQ ID NO: 2) of the HLA-DR β-chain to which an antibody described in WO2003/033538 bind is located 6 amino acid residues before the second N-terminal cysteine residue.

The target of assay [3] is T3, #25 (human).
T3 peptide: WNSQKDFLERRRA
In words: SPOTs peptide membrane (HLA-DR epitope peptide library).

In assay [4] the target is T4, #34 (human).
T4 peptide: WNSQKDLLEQRRA
Described as above.

Assay [5] addresses T5, #38 (human).
T5 peptide: WNSQKDLLERRRA
Described as above.

The target of assay [6] is T6, TRAIL death receptor DR5 (UniProt O14763 56-440, limits assumed).
T6 construct: whole, on cells; also called DR5 receptor
In words: flow cytometry on BHK cells transfected with the DR5 receptor gene. Here is the method:
as §1, §2

For assay [7], the target named is T7, peptide sequence WNSQKDILEQKRG of the HLA-DR β-chain (human).
T7 construct: on the microarray as overlapping 8- to 12-mers
T7 peptide: WNSQKDILEQKRG
In words: peptide microarray of overlapping HLA-DR52 β chain peptides. Here is the method:
as §3

Assay [8] addresses T8, HLA-DR expressed by L428 cells (human).
T8 construct: whole, on cells; The assay is on L428 cells; also called HLA-DR12; HLA-DR on L428 cells
In words: flow cytometry on L428 cells, serially diluted antibody; reference LN3. The method, then:
The ability of each antibody to bind to L428 cells was analyzed by incubation with each of serially diluted antibody solutions using a flow cytometer. […] For cell death induction, the uptake of propidium iodide (PI) was analyzed using a flow cytometer.

The target of assay [9] is T9, DR12-13 (human).
T9 construct: HLA-DR12 overlapping peptide on SPOTs membrane; also called DR-13
T9 peptide: RHNYGAVESFTVQRR
In words: SPOTs peptide membrane, biotinylated 4713 antibody 1 µg/mL. The method, then:
(§4) In order to reconfirm the results obtained using the peptide microarray, HLA-DR expressed by L428 cells was analyzed. […] Next, overlapping peptides were synthesized from the amino acid sequence of HLA-DR12 to prepare a custom SPOTs nitrocellulose membrane (Sigma-Aldrich Corp.). The membrane was rinsed with methanol for 5 minutes, then washed with a […] (TBS), and incubated at room temperature for 2 hours for blocking. […] The membrane was washed and then incubated for 2 hours in a solution of peroxidase (HRP)-labeled streptavidin (manufactured by Dako Japan Inc.) diluted 3000-fold with TBS. After washing, positive spots were detected using ECL Prime Western Blotting Detection kit (manufactured by GE Healthcare Japan Corp.) and a chemiluminescence detector (LAS-4000) (Table 3). As a result, the most strongly reacted peptide was DR12-26, followed by DR12-6 and DR12-13. […] Although an HLA-DR12-derived peptide to which the antibody described in WO2003/033538 binds was also arrayed as DR12-28, no binding was seen (Table 3).

For assay [10], the target named is T10, DR12-3 (human).
T10 construct: HLA-DR12 overlapping peptide on SPOTs membrane
T10 peptide: LMVLSSRLAFAGDTR
The assay is described as above. The method, then:
as §4

Assay [11] addresses T11, DR12-17 (human).
T11 construct: HLA-DR12 overlapping peptide on SPOTs membrane
T11 peptide: VCSVSGFYPGSIEVR
The description is as above. The method, then:
as §4

In assay [12] the target is T12, DR12-15 (human).
T12 construct: HLA-DR12 overlapping peptide on SPOTs membrane
T12 peptide: KVTVYPSKTQPLQHH
The description is as above. Here is the method:
as §4

Assay [13] addresses T13, DR12-25 (human).
T13 construct: HLA-DR12 overlapping peptide on SPOTs membrane
T13 peptide: WRARSESAQSK
The description is as above. Here is the method: as §4

The target in assay [14] is T14, DR12-2 (human).
T14 construct: HLA-DR12 overlapping peptide on SPOTs membrane
T14 peptide: SSLAALTVTLMVLSS
The description is as above. The method, then: as §4

Assay [15] has as its target T15, DR12-6 (human).
T15 peptide: FFNGTERVRLLERHF
The assay is described as above. Here is the method: as §4

Assay [16] concerns the target T16, DR12-4 (human).
T16 construct: HLA-DR12 overlapping peptide on SPOTs membrane
T16 peptide: FAGDTRPRFLEYSTG
The description is as above. Here is the method:
as §4

Assay [17] deals with T17, DR12-26 (human).
T17 construct: HLA-DR12 peptide on SPOTs membrane; also called DR-26
T17 peptide: RNQKGHSGLQPRGFLS
Described as above. Here is the method: as §4

The target in assay [18] is T18, DR12-14 (human).
T18 construct: HLA-DR12 overlapping peptide on SPOTs membrane
T18 peptide: FTVQRRVHPKVTVYP
Described as above. Here is the method:
as §4

The target of assay [19] is T19, DR12-7 (human).
T19 construct: HLA-DR12 overlapping peptide on SPOTs membrane
T19 peptide: LLERHFHNQEELLRF
The assay is described as above. Here is the method: as §4

B1: 4713 mAb (antibody, mouse IgG1, V domains shown)
VH: DVQLQESGPGLVKPSQSLSLTCTVTGYSITNDYAWNWIRQFPGNKLEWMGYISYNDFTYYNPSLKSRISITRDTSKNQFFLQLNSVTAEDTATYYCVSERLRLVNHVMDYWGQGTSVIVSS
VL: QIVLTQSPPIMSASPGEKVTMTCSASSSVNYMHWHQQKSGTSPKKWIYDTSKLISGVPARFSGSGSGTSYSLTISSVEAEDAATYYCQQWSSYPFTFGSGTKLEIK
modifications: Used biotinylated on the SPOTs membranes; the site is not given.
notes: also called monoclonal antibody of the present invention
As to B1, the binding result in assay [1] was “no binding”; in [2] it was “binds”; in assay [3], “binds”; in assay [4] it was “binds”; in assay [5] it was “binds”; in assay [6], “no binding”. Moreover, the binding result in assay [7] is recorded as “no binding (tested: 5 µg/mL)”; in [9], “binds”; in assay [10], “binds”; in assay [11], “binds”; in assay [12], “binds”; in assay [13], “binds”. Further, the binding result in [14], in assay [15], in assay [16], in assay [17], in assay [18] and in [19] was “binds” each time. Further, the “fold lower concentration for binding than LN3” value in assay [8] is roughly 10 times.
